Data as given in US20230242673A1 (published 2023).

What was measured:
[1] = target: T1, original PCSK9 (PCSK9 (human) recombinant protein, Abnova Cat No: H00255738-P01) (UniProt Q8NBP7 31-692); assay: ELISA; 1st experiment
[2] = target: T1, original PCSK9 (PCSK9 (human) …); assay: ELISA; mean of two experiments, ±0.028
[3] = target: T1, original PCSK9 (PCSK9 (human) …); assay: ELISA; 2nd experiment
[4] = target: T1, original PCSK9 (PCSK9 (human) …); assay: ELISA; mean of two experiments, ±0.000
[5] = target: T1, original PCSK9 (PCSK9 (human) …); assay: ELISA; mean of two experiments, ±0.014

T1 sequence (Q8NBP7 other isoform, or with tags, fused parts or gaps): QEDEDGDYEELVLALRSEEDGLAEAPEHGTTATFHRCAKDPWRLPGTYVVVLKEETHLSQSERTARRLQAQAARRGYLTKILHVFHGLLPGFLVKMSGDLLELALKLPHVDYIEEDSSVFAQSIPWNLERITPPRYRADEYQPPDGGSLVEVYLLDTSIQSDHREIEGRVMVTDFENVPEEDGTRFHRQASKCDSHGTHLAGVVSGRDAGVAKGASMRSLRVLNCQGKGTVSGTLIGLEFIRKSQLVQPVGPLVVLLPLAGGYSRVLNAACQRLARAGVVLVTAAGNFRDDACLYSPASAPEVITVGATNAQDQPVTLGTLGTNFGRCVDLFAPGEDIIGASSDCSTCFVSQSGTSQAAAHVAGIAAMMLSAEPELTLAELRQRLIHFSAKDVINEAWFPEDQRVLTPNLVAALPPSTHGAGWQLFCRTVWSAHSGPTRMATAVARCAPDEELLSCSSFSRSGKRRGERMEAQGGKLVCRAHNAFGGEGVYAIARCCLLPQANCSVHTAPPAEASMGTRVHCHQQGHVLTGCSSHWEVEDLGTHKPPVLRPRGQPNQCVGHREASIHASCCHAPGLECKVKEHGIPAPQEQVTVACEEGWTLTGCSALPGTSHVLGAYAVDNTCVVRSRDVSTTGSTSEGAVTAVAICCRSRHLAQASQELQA

Binder | EC50 [1] | EC50 [2] | EC50 [3] | EC50 [4] | EC50 [5]
ch7D1 IgG (antibody, V domains shown) VH: EVKLVESGAELVRSGASVKLSCTASGFNIKDYYMHWVKQRPEQGLEWIGYIDPENGDTEYAPKFQGKATMTADTSSNTAYLQLSSLTSEDTAVYYCRSSPFTYWGQGTLVTVSA VL: not shown | 0.36 µg/mL | 0.38 µg/mL | 0.4 µg/mL |  | 
hz7D1.11 IgG (antibody, V domains shown) VH: QVQLVQSGAEVKKPGASVKVSCKASGFNIKDYYMHWVRQAPGQGLEWIGYIDPENGDTEYAPKFQGRATMTADTSISTAYMELSRLRSDDTAVYYCRSSPFTYWGQGTLVTVSS VL: DVVMTQSPLSLPVTLGQPASISCKSSQSLLDSDGKTYLNWLQQRPGQSPRRLIYLVSKLDSGVPDRFSGSGSGTDFTLKISRVEAEDVGVYYCWQGTHFPQTFGGGTKVEIKR | 0.13 µg/mL |  | 0.13 µg/mL | 0.13 µg/mL | 
hz7D1.22 IgG (antibody, V domains shown) VH: QVQLVQSGAEVKKPGASVKVSCKASGYTFKDYYMHWVRQAPGQGLEWMGYIDPENGDTEYAPKFQGRVTMTADTSISTAYMELSRLRSDDTAVYYCRSSPFTYWGQGTLVTVSS VL: DVVMTQSPLSLPVTLGQPASISCKSSQSLLDSDGKTYLNWFQQRPGQSPRRLIYLVSKLDSGVPDRFSGSGSGTDFTLKISRVEAEDVGVYYCWQGTHFPQTFGGGTKVEIKR | 0.19 µg/mL |  | 0.17 µg/mL |  | 0.18 µg/mL
